Patent publication US8846340B2, “Carbohydrate-binding modules of a new family” (Novozymes A/S, priority 2003, dated 2014)

Assays:
[1] = Binding of CBMX to Avicel (A280 of supernatant); conditions: for A280: Absorbance at 280 nm of 200 μl supernatant, absorbance of buffer and Avicel subtracted: 4 hours, room temperature, 20 mM Tris pH 7.5
Method: The carbohydrate-binding domain with affinity for Avicel® and purified as described in Example 2 (CBMX) was studied further. 50 μl purified CBMX was mixed with 500 μl 20 mM Tris, pH 7.5 containing varying amount of Avicel® (0-100 mg/ml) in an Eppendorf tube. After 4 hours incubation at room temperature with agitation, the samples were centrifuged. 200 μl supernatant was transferred to the well of a microtiter plate (Costar, UV plate) and absorbance read at 280 nm on a microtiter plate reader (SpectraMax® Plus, Molecular Devices).

[2] = Binding of CBMX to PASC (A280 of supernatant); conditions: 4 hours, room temperature; for A280: Absorbance at 280 nm of 200 μl supernatant, absorbance of buffer subtracted: 20 mM Tris pH 7.5
Method: A similar binding study was performed with PASO (Phosphoric Acid Swollen Cellulose: To 5 g Avicel® moistened with water 150 ml ice-cold 85 ortho-phosphoric acid is added. After 1 hour stirring on ice bath, 500 ml cold acetone is added. The suspension is filtered and washed, first with acetone and then with water). 50 μl purified CBMX was mixed with 500 μl 20 mM Tris, pH 7.5 containing varying amount of PASO (0-10 mg/ml) in an Eppendorf tube. Samples were incubated 4 hours at room temperature with agitation. After centrifugation, 200 μl supernatant was transferred to the well of a microtiter plate and absorbance read at 280 nm.

[3] = Competition binding assay with CBMX and Avicel, references without soluble carbohydrate; conditions: 4 hours
Method: (§1) Affinity of CBMX for a number of soluble carbohydrates was tested in a competition assay by mixing 100 μl CBMX with both Avicel® (400 μl 50 mg/ml in 20 mM Tris, pH 7.5) and the soluble carbohydrate (dissolved in 500 μl 20 mM Tris, pH 7.5). As references, samples without CBMX or soluble carbohydrate added were used. If CBMX has affinity for the soluble carbohydrate it should be able to keep CBMX in solution which can be measured as increase in absorbance at 280 nm compared to sample without soluble carbohydrate added. After 4 hours incubation at room temperature with agitation, samples were centrifuged and absorbance at 280 nm was read using 200 μl supernatant in the well of a microtiter UV plate. Tested soluble carbohydrates were barley β-glucan (Megazyme, low viscosity), lichenan (Megazyme, Icelandic moss), CMC (carboxymethyl cellulose 7LF, Hercules, USA), Xyloglucan (Megazyme, amyloid, from tamarind seed), lupin galactan (Megazyme) and Locust bean gum (Sigma, G-0753).

[4] = Competition binding assay with CBMX, Avicel and soluble carbohydrate; parameters: species or system barley; conditions: beta-glucan
Method: as §1

[5] = as above; parameters: species or system Icelandic moss; conditions: lichenan
Method: as §1

[6] = as above; parameters: species or system tamarind; conditions: xyloglucan
Method: as §1

[7] = as above; parameters: species or system lupin; conditions: galactan
Method: as §1

[8] = as above; conditions: for CBMX kept in solution by soluble carbohydrate (in words): competition with Avicel
Method: as §1

B1: CBMX: Carbohydrate-binding module of Pseudoplectania nigrella GH61 enzyme (positions 34-174 of SEQ ID NO:2), expressed in Aspergillus oryzae, purified on Avicel (protein, listed as Pseudoplectania nigrella)
chain: SSGTSNDKAVASSSIAAVDPVTSSVVASVQVPNFTATDVPTFTATDIPTFTATDVPIFTKKPQQPSTLLTRTRTHASVSFVAKPSAFIPKPSASTIPSKPKTPEEVNKCLDAVNACITQAQSSIGGVVNFEPCESQRALCY
A280: Absorbance at 280 nm of 200 μl supernatant, absorbance of buffer and Avicel subtracted ([1]; Avicel 0.0 mg/ml): 0.0768
A280: Absorbance at 280 nm of 200 μl supernatant, absorbance of buffer and Avicel subtracted ([1]; Avicel 0.391 mg/ml): 0.0777
A280: Absorbance at 280 nm of 200 μl supernatant, absorbance of buffer and Avicel subtracted ([1]; Avicel 0.781 mg/ml): 0.0808
A280: Absorbance at 280 nm of 200 μl supernatant, absorbance of buffer and Avicel subtracted ([1]; Avicel 1.563 mg/ml): 0.0799
A280: Absorbance at 280 nm of 200 μl supernatant, absorbance of buffer and Avicel subtracted ([1]; Avicel 3.125 mg/ml): 0.0729
A280: Absorbance at 280 nm of 200 μl supernatant, absorbance of buffer and Avicel subtracted ([1]; Avicel 6.25 mg/ml): 0.0637
A280: Absorbance at 280 nm of 200 μl supernatant, absorbance of buffer and Avicel subtracted ([1]; Avicel 12.5 mg/ml): 0.0540
A280: Absorbance at 280 nm of 200 μl supernatant, absorbance of buffer and Avicel subtracted ([1]; Avicel 25 mg/ml): 0.0326
A280: Absorbance at 280 nm of 200 μl supernatant, absorbance of buffer and Avicel subtracted ([1]; Avicel 50 mg/ml): 0.0185
A280: Absorbance at 280 nm of 200 μl supernatant, absorbance of buffer and Avicel subtracted ([1]; Avicel 100 mg/ml): 0.0095
Binding of the protein to Avicel (in words) ([1]; highest concentrations of Avicel, 4 hours incubation): the large majority of the protein binds
Affinity for Avicel (in words) ([1]; summary statement): have affinity for Avicel®
Affinity for PASC (in words) ([2]; 0-10 mg/ml): has affinity for PASO
A280: Absorbance at 280 nm of 200 μl supernatant, absorbance of buffer subtracted ([2]; PASC 0.0 mg/ml): 0.0753
A280: Absorbance at 280 nm of 200 μl supernatant, absorbance of buffer subtracted ([2]; PASC 0.625 mg/ml): 0.0682
A280: Absorbance at 280 nm of 200 μl supernatant, absorbance of buffer subtracted ([2]; PASC 1.25 mg/ml): 0.0710
A280: Absorbance at 280 nm of 200 μl supernatant, absorbance of buffer subtracted ([2]; PASC 2.5 mg/ml): 0.0618
A280: Absorbance at 280 nm of 200 μl supernatant, absorbance of buffer subtracted ([2]; PASC 5 mg/ml): 0.0512
A280: Absorbance at 280 nm of 200 μl supernatant, absorbance of buffer subtracted ([2]; PASC 10 mg/ml): 0.0471
Difference in A280 between samples with and without CBMX added ([3]; None - Only Avicel (20 mg/ml) and CBMX, no soluble carbohydrate): 0.018
Difference in A280 between samples with and without CBMX added ([3]; None - Only CBMX (no Avicel, no soluble carbohydrate)): 0.108
Affinity of CBMX for soluble carbohydrate (in words) [4]: affinity
CBMX kept in solution by soluble carbohydrate (in words) ([4]; competition with Avicel): keep almost all CBMX in solution
Affinity of CBMX for soluble carbohydrate (in words) [5]: no affinity for lichenan could be detected
CBMX kept in solution by soluble carbohydrate (in words) ([5]; competition with Avicel): does not result in any increase in CBMX in solution
Affinity of CBMX for soluble carbohydrate (in words) [6]: to some extent
CBMX kept in solution by soluble carbohydrate (in words) ([6]; competition with Avicel): about half of the CBMX in solution
Affinity of CBMX for soluble carbohydrate (in words) [7]: to some extent
CBMX kept in solution by soluble carbohydrate (in words) ([7]; competition with Avicel): about half of the CBMX in solution
Affinity of CBMX for soluble carbohydrate (in words) ([8]; CMC): affinity
CBMX kept in solution by soluble carbohydrate (in words) ([8]; CMC): keep almost all CBMX in solution
Affinity of CBMX for soluble carbohydrate (in words) ([8]; locust bean gum): affinity
CBMX kept in solution by soluble carbohydrate (in words) ([8]; locust bean gum): keeps the majority in solution
